Results as given in patent US20190153111A1.

Assays:
[1] = molecular target: Human FcγRIIIA 158F (human) (UniProt P08637); assay: SPR (T100), biotinylated receptor on streptavidin chip, equilibrium binding, 1:1 model
[2] = molecular target: Human FcγRIIIA 158V (human) (UniProt P08637); assay: as above
Sequence of Human FcγRIIIA 158V (human) (P08637 other isoform, or with tags, fused parts or gaps): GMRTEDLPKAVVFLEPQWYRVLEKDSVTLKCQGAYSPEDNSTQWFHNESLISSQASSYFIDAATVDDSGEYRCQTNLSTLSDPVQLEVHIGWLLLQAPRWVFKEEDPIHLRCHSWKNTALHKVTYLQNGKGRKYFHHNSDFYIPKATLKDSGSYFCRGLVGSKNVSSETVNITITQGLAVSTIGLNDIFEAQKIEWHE

Sequence of Human FcγRIIIA 158F (human) (P08637 17-199 limits assumed): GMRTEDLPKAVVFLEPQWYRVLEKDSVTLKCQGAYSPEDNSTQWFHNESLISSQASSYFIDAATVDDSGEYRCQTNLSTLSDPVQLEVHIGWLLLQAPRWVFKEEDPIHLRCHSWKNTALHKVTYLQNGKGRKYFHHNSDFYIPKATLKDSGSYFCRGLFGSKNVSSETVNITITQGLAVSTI

- Ka [1]: 699000 M⁻¹
- Ka [2]: 1.72e+06 M⁻¹
Substance: HCD122 (antibody)
